Earlier results on two substances are cited in publication PMC11816674.

In data set [1] the target is Cav1.4 1579-1605 (Homo sapiens) (UniProt O60840).
A further data set addresses IP3R N-terminal region (UniProt Q14643).
UniProt Q14643, sequence (Q14643 1-604): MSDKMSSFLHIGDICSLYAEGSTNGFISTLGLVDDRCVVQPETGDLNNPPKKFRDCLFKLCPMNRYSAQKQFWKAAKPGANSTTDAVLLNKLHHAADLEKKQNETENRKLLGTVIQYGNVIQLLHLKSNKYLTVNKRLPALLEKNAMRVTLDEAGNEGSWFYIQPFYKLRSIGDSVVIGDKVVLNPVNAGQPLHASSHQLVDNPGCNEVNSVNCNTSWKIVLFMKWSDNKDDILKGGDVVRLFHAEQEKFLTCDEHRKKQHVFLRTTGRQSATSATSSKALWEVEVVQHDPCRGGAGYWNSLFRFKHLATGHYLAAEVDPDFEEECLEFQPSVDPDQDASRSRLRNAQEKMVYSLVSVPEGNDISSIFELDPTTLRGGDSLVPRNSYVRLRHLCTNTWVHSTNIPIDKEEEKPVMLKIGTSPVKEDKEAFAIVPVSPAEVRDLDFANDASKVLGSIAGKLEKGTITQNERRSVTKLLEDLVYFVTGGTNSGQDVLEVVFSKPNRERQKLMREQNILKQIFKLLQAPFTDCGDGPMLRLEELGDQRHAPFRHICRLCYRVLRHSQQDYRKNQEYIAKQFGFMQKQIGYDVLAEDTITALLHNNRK

UniProt O60840, sequence (O60840 1579-1605): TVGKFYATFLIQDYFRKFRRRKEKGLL

One may read the Kd as the concentration at which binding is half-saturated. As to CaBP4 (from UniProt P57796), in data set [1], the dissociation constant Kd was 800 nM.

For CaBP1 (from UniProt Q9NZU7), the Kd in the data set with IP3R N-terminal region was 3000 nM.
